Biological target: T1, Sec61∆L7p (S. cerevisiae, UniProt P32915 1-480, amino acids 305–371 of wildtype Sec61p had been replaced by two amino acids …)
T1 construct: Sec61p, S. cerevisiae, lacking ER-lumenal loop 7 and the lumenal ends of TMDs 7 and 8; also called Sec61ΔL7p; Sec∆L7p; source: yeast KRY461 with sec61ΔL7pRS315 as sole copy of SEC61, in microsomes; solubilized in Triton-X100 or digitonin, or total protein reconstituted into proteoliposomes
T1 sequence (looked up): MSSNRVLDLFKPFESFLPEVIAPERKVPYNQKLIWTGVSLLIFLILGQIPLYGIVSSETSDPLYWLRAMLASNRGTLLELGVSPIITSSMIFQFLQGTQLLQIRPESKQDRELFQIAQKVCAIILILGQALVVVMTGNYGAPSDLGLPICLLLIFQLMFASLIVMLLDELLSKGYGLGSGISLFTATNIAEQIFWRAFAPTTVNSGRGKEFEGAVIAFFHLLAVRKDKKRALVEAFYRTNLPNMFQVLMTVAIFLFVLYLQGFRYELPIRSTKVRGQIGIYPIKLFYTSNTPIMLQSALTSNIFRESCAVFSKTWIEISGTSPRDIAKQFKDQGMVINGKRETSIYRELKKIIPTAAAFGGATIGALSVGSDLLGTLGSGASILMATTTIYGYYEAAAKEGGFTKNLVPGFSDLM
Assay: cross-linking; intact microsomes in B88, pH 7.9, treated with DSS for 20 min at 20°C, quenched with ammonium acetate; SDS-PAGE and immunoblotting with anti-Sec61p or anti-Sss1p antibodies
Details: partners not purified

B1: Sss1p (natural protein, UniProt P35179 1-80, looked up)
chain: MARASEKGEEKKQSNNQVEKLVEAPVEFVREGTQFLAKCKKPDLKEYTKIVKAVGIGFIAVGIIGYAIKLIHIPIRYVIV
notes: Sss1p, small subunit of the trimeric Sec61 complex, yeast; source: endogenous, yeast microsomes
Question: With B1 as the binder, how does the “fold weaker crosslink than in wildtype membranes” value read?
Answer: ≥ 5 fold

From paper PMC3897919, “ERAD and protein import defects in a sec61 mutant lacking ER-lumenal loop 7” (BMC Cell Biology, 2013)
